Measured values published in article PMC3946040.

Experiments:
[1] = target: AspBHI, modification-dependent restriction endonuclease from Azoarcus sp. BH72 (Azoarcus sp. BH72); assay: crystal structure
[2] = target: AspBHI, modification-dependent restriction endonuclease from Azoarcus sp. BH72 (Azoarcus sp. BH72); assay: SEC

“AspBHI, modification-dependent restriction endonuclease from Azoarcus sp. BH72 (enzyme)” showed a stoichiometry N [1] of 4 and a stoichiometry N [2] of 4.
